Among the data in the supplement of paper PMC12042874 are amyloid nucleation score values, retold here.

± gives the uncertainty stated by the source.

A short description of the data set: amyloid nucleation score (Sup35N fusion, yeast selection) (log enrichment); library NNK3; higher = more nucleation; inactive = no reads after selection. The procedure, abridged: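 Yeast lacking psi expressed peptides of 20 random codons fused to Sup35N, received 100 μM copper sulfate for 24 hours, and were then grown for 7 days at 30°C on medium lacking adenine and uracil. Illumina sequencing of input and output plasmid inserts provided the reads. Nucleation scores are DiMSum log enrichments of output over input, centred on the mode of non-aggregating sequences. Any sequence with under 100 input reads was excluded.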
Take VLILCIKNTCLNQCASSCHR: the amyloid nucleation score was 2.02 ± 0.068.

With VLIMRCLKWFASMLCFSIPK, the amyloid nucleation score result was “inactive”. Then VLIYRRGFNYLRVLCCTTGF, with “inactive”; and VLKKGGVFVWFAWECNTCSD, with “inactive”. Consider VLKKGYNKRYVGECIANCTV, for which the amyloid nucleation score entry was “inactive”. VLLIWIIVPTWF had an amyloid nucleation score of 0.5 ± 0.14.

Turning to VLLVHGKEWTEMLAHTLRCG, the amyloid nucleation score result was “inactive”.

VLRGHSMHRSMGLWLA: the amyloid nucleation score result was “inactive”. VLRIFISWCSVQLSKRLWWT: the amyloid nucleation score result is “inactive”. As for VLRVDRGGTIMRYPCLG, the amyloid nucleation score entry is “inactive”. As to VLSIDTDYKFIGHASDYASI, the amyloid nucleation score amounted to 0.959 ± 0.16.

Turning to VLSMRHSNTGMARCTDW, the amyloid nucleation score result is “inactive”. As to VLSQRVPQMHMTNGVTEASV, the amyloid nucleation score result was “inactive”. With VLTFNKGFFGC, the amyloid nucleation score stood at 1.26 ± 0.11. For VLTVYDCGLEQPW, the amyloid nucleation score result was “inactive”. VLVIIKSD: the amyloid nucleation score result was “inactive”.

On to VLVLAMITFYNLYMYYDVGR, for which the amyloid nucleation score result is “inactive”. With VLYSCERKELVIGMKVLVWE, the amyloid nucleation score entry was “inactive”. On to VLYYCGFSITARKSEKLVWP, for which the amyloid nucleation score result is “inactive”.

VMDLLK: the amyloid nucleation score entry is “inactive”. In the case of VMGMDIIRIPS it was “inactive”; in that of VMGVAPSYASTYLLVILNMG, 1.39 ± 0.15. In the case of VMIVRLYVIYPMFEVKP it was “inactive”. As to VMKSYDWEDWSSDPFIFRYV, the amyloid nucleation score result is “inactive”. For the substance VMMFYNILHSQIDKLFKLLA, the amyloid nucleation score result is “inactive”. Regarding VMQHNVGLFNDHKYDSCRAC, the amyloid nucleation score entry was “inactive”. VMTITLVLKWYGLLT: the amyloid nucleation score entry was “inactive”. Substance VMVFN yielded an amyloid nucleation score of 0.635 ± 0.36.

On to VMYGIL, for which the amyloid nucleation score entry is “inactive”.

On to VNFACSIGGRGLFGFGIKVS, for which the amyloid nucleation score result is “inactive”. VNFCFFFKLLRGRSGYHLSW: the amyloid nucleation score is 2.15 ± 0.09. On to VNFFGR, for which the amyloid nucleation score entry was “inactive”. With VNGLLAIRVYCKHWP, the amyloid nucleation score result was “inactive”. In the case of VNHKFKSSFFNNH, the amyloid nucleation score was -0.27 ± 1.1.

VNKVKILCYGHHFKGMWDLA: the amyloid nucleation score entry was “inactive”.

For VNNPQVDHRVLFNNM, the amyloid nucleation score was -0.426 ± 0.61. On to VNRFVDTVGKGRITIIGCEH, for which the amyloid nucleation score entry is “inactive”. The substance VNRKEIRHVRLLCPSRGSVA came in with an amyloid nucleation score of -0.091 ± 0.43. VNTLPQLLSLYSDLLRGESL had an amyloid nucleation score of -0.218 ± 1.4. In the case of VNYRSNIFNHYCSFSRN it was 0.934 ± 0.11. Turning to VNYRTQRRTQYTQCTRKVGG, the amyloid nucleation score result was “inactive”. Consider VPDLYSTEDGFSCCVSEYCT, for which the amyloid nucleation score result is “inactive”. VPIRECTMLSSMSWTGEPSY: the amyloid nucleation score entry is “inactive”.

As for VPMFSSLCPYTISLFQGTSP, the amyloid nucleation score entry was “inactive”. VPNEVFISYLV: the amyloid nucleation score result is “inactive”. Turning to VQDPDL, the amyloid nucleation score result is “inactive”.

As to VQFMMYVGTGIGAVGSGVNY, the amyloid nucleation score turned out to be 1.53 ± 0.11. For the substance VQLFSQNALPMFNSWKYYDH, the amyloid nucleation score entry is “inactive”. VQSSPVYMFMTNNSF: the amyloid nucleation score turned out to be 1.8 ± 0.056.

On to VQWCPNVYTDSQVCRYVSSR, for which the amyloid nucleation score result is “inactive”. In the case of VRAVLIAYGLK, the amyloid nucleation score result is “inactive”.

VRCYRVIMRLTFAETCQGHP: the amyloid nucleation score result was “inactive”.

As for VREFYN, the amyloid nucleation score entry was “inactive”.

As for VRIFSTVEKASP, the amyloid nucleation score result was “inactive”. VRMGVNLGNKTLNTWESSCD: the amyloid nucleation score entry is “inactive”. On to VRNKLNCKRSGA, for which the amyloid nucleation score result was “inactive”. Take VRPLVDYMMQNM: the amyloid nucleation score entry is “inactive”. Turning to VRRLFVARCRYCQLMYFRGE, the amyloid nucleation score result was “inactive”. VRSRRLLCKNRTVVEARNVV: the amyloid nucleation score result was “inactive”.

Turning to VRTRMEPRG, the amyloid nucleation score entry is “inactive”.

Turning to VRVRVHVVVVVKLLKMVGAV, the amyloid nucleation score entry was “inactive”. Regarding VRVSNYTRVLVYKDRVS, the amyloid nucleation score entry is “inactive”. Take VRVSRNGSVLY: the amyloid nucleation score result is “inactive”. In the case of VRWQYVYMPPA it was “inactive”; in that of VRYPRSLVCYWYGRNHAVWA, “inactive”. As for VRYVNGSKCTFNLS, the amyloid nucleation score entry is “inactive”. With VSACLNSGGQHSQRHANMAV, the amyloid nucleation score result was “inactive”.

For the substance VSATSQYQSICLSLNTKNRF, the amyloid nucleation score result is “inactive”.

For VSCRQLYQSIGGRKPDRRFI, the amyloid nucleation score result was “inactive”. As for VSEIFFADVFISWYGISRVL, the amyloid nucleation score entry was “inactive”.

For VSFQD, the amyloid nucleation score entry was “inactive”. In the case of VSFSSCTWSMQEERMLVSWG it was “inactive”; in that of VSFYSSCVWIDARSCDYCYF, 2.79 ± 0.058; in that of VSGMDCSGGFASVESMASYR, “inactive”.

For the substance VSLFGCKIMLRMKFGVCLSG, the amyloid nucleation score result is “inactive”. As to VSLKVFYGNKDARNRDIPTL, the amyloid nucleation score entry was “inactive”. In turn, VSLLNITTVMSSPRIQGKHV displayed an amyloid nucleation score of 1.01 ± 0.12. Substance VSLLSVCGCDRRVFEVWHYG yielded an amyloid nucleation score of 0.446 ± 0.2.

VSLMMCVVPFMPVLQHMSNA yielded an amyloid nucleation score of 0.793 ± 0.16.

With VSMRPMTSSRLKRFKYRYLY, the amyloid nucleation score entry is “inactive”. For VSNMCVGMKLCFSDNHYREL, the amyloid nucleation score worked out at 1.78 ± 0.067. For the substance VSTGSAGSLWSV, the amyloid nucleation score entry is “inactive”. VSVFMKLVRFET yielded an amyloid nucleation score of 1.17 ± 0.091. In turn, VSVNMFLYISVNYKELGCEY gave an amyloid nucleation score of 1.93 ± 0.056. Take VSVYRRLGHIVLVIVITLAS: the amyloid nucleation score entry was “inactive”. As for VTCCLLFLDCGVGSRMMLGL, the amyloid nucleation score was -0.356 ± 0.98. As to VTCETSGADVVSTR, the amyloid nucleation score result is “inactive”. For VTDEIFELSGKVTIDSAEL, the amyloid nucleation score entry is “inactive”. In the case of VTFLHGCIDFAGSYSAGSSD, the amyloid nucleation score result was “inactive”.

In turn, VTGDWTGYMPLCLISVAFLS returned an amyloid nucleation score of 1.5 ± 0.083. Consider VTLFAMPRNL, for which the amyloid nucleation score entry was “inactive”. For VTNPLGPFMDRF, the amyloid nucleation score result was “inactive”. VTNSFSIFSGIIVHSTSLMV gave an amyloid nucleation score of 0.032 ± 0.6. Turning to VTQATWLGRIYLLLAPA, the amyloid nucleation score result was “inactive”. On to VTQESNHATIAVLM, for which the amyloid nucleation score result is “inactive”. As for VTQLWVLNSVSVYWKDLVAP, the amyloid nucleation score is -0.319 ± 1.1.

VTWNHSSCSERKRVRMSGWS displayed an amyloid nucleation score of 0.801 ± 0.14. Consider VVDGLMAVFLSHVRVAIYYV, for which the amyloid nucleation score result is “inactive”.

Consider VVDLIFLSLF, for which the amyloid nucleation score result was “inactive”. On to VVLRTSLCVMWINVRHLCDP, for which the amyloid nucleation score result is “inactive”.

Turning to VVLWWS, the amyloid nucleation score entry was “inactive”. Substance VVMIPNIFCDWRGNGNNQCG yielded an amyloid nucleation score of 1.33 ± 0.11.

Take VVRIDSSLGKFNFQSAKD: the amyloid nucleation score entry is “inactive”. Take VVRSRTFTSTSYTF: the amyloid nucleation score worked out at 0.777 ± 0.23. In the case of VVSSFMMLVYMNLLNFSNVE it was “inactive”; in that of VVSSRLDAALDCWVREDCGV, “inactive”. VVYYFKMLMGVTLYSMVIWQ: the amyloid nucleation score result is “inactive”.

In the case of VVYYWSVRITAVQHYWHLYT, the amyloid nucleation score entry is “inactive”. Consider VWAYFDMFDTFCYKVTARMK, for which the amyloid nucleation score result is “inactive”. On to VWCRQITMMACMSVR, for which the amyloid nucleation score result was “inactive”. VWCTSVVT came in with an amyloid nucleation score of -0.149 ± 0.28.

For VWCYFVQYHGIISLSFIAFR, the amyloid nucleation score entry was “inactive”. VWETATNFSISMLWRQAFRM: the amyloid nucleation score result is “inactive”.

As for VWKLRLDVLIITIWGFNFYL, the amyloid nucleation score entry was “inactive”. On to VWRRKKAGAHYREDVSNYPQ, for which the amyloid nucleation score result was “inactive”. Regarding VWVHA, the amyloid nucleation score result is “inactive”. In the case of VWVLHRRRSKYMQVTVWLDL it was “inactive”; in that of VWVLYGKITVPSPKARMGKT, -0.083 ± 1.1; in that of VYACWIMSNVPSRAVEILYS, “inactive”. In the case of VYFGSWTWSVNSKHLPPALV, the amyloid nucleation score entry was “inactive”.

With VYILFNWSRPSCHLIEHFRA, the amyloid nucleation score entry is “inactive”.

For VYKWRAYIEHSNFWAIKPVC, the amyloid nucleation score entry is “inactive”. Then VYLDFKGWFVMLSINLNQFY, with “inactive”; and VYLIKPMNDALSHHEPIKWD, with “inactive”. Turning to VYNCAMVCPNLIFWSFATGL, the amyloid nucleation score stood at 2.55 ± 0.069. Then VYNLIRLFLYPTVISSITPL, with “inactive”; and VYNRRYKSNRNIYSHGNRLK, with 1.54 ± 0.1; and VYNVTITNYRNLPAM, with 2.24 ± 0.088.

Consider VYQLIYVTGCQNAVRE, for which the amyloid nucleation score worked out at 0.674 ± 0.32. Then VYRYFASKIIKGIFSRCCTF, with “inactive”.
